Numbering of substitutions follows the chain as printed. Numbers in names are those of the source.
B1: NLRP14 PYD (wild-type NLRP14 pyrin domain, residues Met1-Gln100) (domain or fragment, human, UniProt Q86W24 1-100, looked up)
chain: MADSSSSSFFPDFGLLLYLEELNKEELNTFKLFLKETMEPEHGLTPWNEVKKARREDLANLMKKYYPGEKAWSVSLKIFGKMNLKDLCERAKEEINWSAQ
notes: NLRP14 pyrin domain, human, residues Met1-Gln100, amplified from human NLRP14 cDNA GenBank NM_176822.3; The crystal structure (PDB 4n1j) was solved from selenomethionine-labelled protein expressed in SeMet minimal medium and purified identically; SEC used the native protein; also called wild-type NLRP14 PYD; wild-type PYD; source: E. coli BL21 Star (DE3), purified (Ni-NTA, eluted by thrombin …)
B2: NLRP14 PYD D86V (protein)
chain: B1 chain with D86V

Assays:
Q86W24 = experiment: SEC; analytical Superdex 75 10/300, 20 mM Tris pH 8.0, 150 mM NaCl, 5 mM TCEP; 700 µl at 1 mg/ml injected; monomer:dimer ratio from peak areas
[1] = target: the molecule itself; experiment: as above

Protein	dimer fraction (SEC peak area) (Q86W24)	stoichiometry N [1]
B1	dimeric (17%)	2
B2	12.13 ml, 24%	
